Data on 5 molecules can be found in US20110189284A1, “Peptide Fibres” (UNIVERSITY OF BRISTOL, priority 2009, published 2011).

For data set [1], the system named is PC12 cells. Kind of data set: Alamar Blue cell-proliferation assay. It counts as cell-based, rat. The settings on record: cells on collagen; peptide 0.5-2.5 mM total; 72 hours. As for the experimental part: PC12 cells were exposed to different concentrations of hSAFAAA-W peptides (from 0.5 mM to 2.5 mM). Results are expressed as percentage of fluorescence from cells incubated with hSAFAAA-W versus no-peptide controls (100%). Mean+/−s.d. mean for n=3 experiments. […] Staurosporine was used to establish definite cell death.
Rat adrenal pheochromocytoma (PC12) cells and the subclone Neuroscreen-1 (NS-1) cells (ThermoFisher Scientific Cellomics) were used. Cells were maintained at 37° C., 5% CO2 in cell-culture medium comprising: Dulbecco's Modified Eagle Media (DMEM, Invitrogen) supplemented with 10% (v/v) horse serum (Sigma), 5% (v/v), fetal bovine serum (Sigma), 1% (v/v) penicillin/streptomycin solution (Sigma), and 2 mM L-glutamine (Invitrogen). […] The fluorescence (excitation, 560 nm; emission, 590 nm) of 100 μl samples was measured. The ratio of the fluorescence intensities to that for a no-peptide control wells was taken as a measure of cell proliferation. […] Cell morphology was followed up using Leica Microsystem Wetzlar GmbH (090-135.001) and images recorded using Canon PowerShot S70 7.1 megapixels. […]
On the technique in general: Alamar Blue is a resazurin reagent that responds to reducing activity.

Data set [2] can be described thus: Particle-tracking microrheology (PTM) of gel strength versus temperature. Format: physicochemical. As to conditions: as a function of temperature. The method, then:
Gel strength was probed using particle-tracking microrheology (PTM), in order to detect any difference between the behaviour of the material at the bulk and micro scales. PTM is a non-invasive technique for measuring local viscoelasticity in complex fluids (Cicuta & Donald, 2007). PTM directly observes the motion of embedded probe particles via optical microscopy. The mean square displacement (MSD) of the particles is calculated and related to the viscoelastic modulus of the sample using a Generalised Stokes-Einstein Relation (Mason, 2000; Hasnain & Donald, 2006). […] The spatial information for individual probe particles can be used to quantify the degree of heterogeneity in the system (Houghton et al., 2008).
Experiments were carried out using a Zeiss LSM 510 confocal microscope operated in bright-field mode with a 50× objective. […] Videos were captured in uncompressed avi format at 640×480 resolution and analysed using custom-written Matlab scripts. Viscoelastic moduli were calculated by taking Laplace Transform of the MSD and using GSER. […]
To confirm and quantify the gel strengths, the storage (G′) and loss (G″) moduli were recorded as a function of temperature using both microrheology (FIG. 3) and bulk oscillatory rheology, FIG. 4a. […]

Data set [3] concerns the target T1, hSAFAAQ p2.
T1 construct: Second peptide of the control pair hSAFAAQ
T1 peptide: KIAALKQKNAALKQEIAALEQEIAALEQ
The data set can be described thus: summary of microscopy of the mixed peptides.

The target of data set [4] is T2, hSAFQQQ p2.
T2 construct: Second peptide of the hSAFQQQ pair; also called peptide f)
T2 peptide: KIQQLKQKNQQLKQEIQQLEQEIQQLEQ
The data set can be described thus: complementary peptides mixed on ice at 1 mM each; vial inversion gel test. As for the experimental part:
(§1) Complementary hSAF peptides were mixed on ice, and either allowed to assemble at this temperature for 30 minutes, or removed after 5 minutes and incubated for 25 minutes at 20° C. After these times, to test for gel formation, sample vials were inverted and incubated for a further 30 minutes without changing the temperature (FIG. 2). Through this simple test, hSAFAAA and hSAFQQQ both formed self-supporting gels. hSAFQQQ formed a gel at low temperature, which melted on warming; whereas, the hSAFAAA appeared to form a weak gel at low temperature that strengthened on warming.

For data set [5], the target named is T3, hSAFAAA p2.
T3 construct: Second peptide of the hSAFAAA pair; also called peptide b)
T3 peptide: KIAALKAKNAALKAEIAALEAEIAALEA
Described as above. The method, then:
as §1

On to `CN[C@@H]1C[C@H]2O[C@@](C)([C@@H]1OC)n1c3ccccc3c3c4c(c5c6ccccc6n2c5c31)C(=O)NC4` [staurosporine], for which, in data set [1], the “cell proliferation / death versus no-peptide controls” value is “died”.

As for “KIAALKAKNAALKAEIAALEAEIAALEA [hSAFAAA p2]”, the “gel state by PTM” value in data set [2] is “formed a weak gel detectable by PTM”.

For KIAALKQKIAALKQEIAALEQENAALEQ [hSAFAAQ p1], the binding result in data set [3] is “binds”.

B1: hSAFQQQ p1 (peptide)
peptide: KIQQLKQKIQQLKQEIQQLEQENQQLEQ
notes: First peptide of the hSAFQQQ pair; also called peptide e)
Take B1: the binding result in data set [4] is given as “binds”.

B2: hSAFAAA p1 (peptide)
peptide: KIAALKAKIAALKAEIAALEAENAALEA
notes: First peptide of the hSAFAAA pair; many copies assemble with p2 into a staggered heterodimer coiled-coil fibril; also called peptide a)
In the case of B2, the binding result in data set [5] was “binds”.
